No end group written: not given here.

The assay deals with T1, folding reporter GFP 1-10 (Aequorea victoria, UniProt P42212 1-214 = GFP).
T1 construct: range 1-214; also called folding reporter GFP fragment 1-214; FR
Briefly: co-expression from compatible pET vectors in E. coli, colony fluorescence (split GFP complementation).

T1 sequence (P42212 other isoform, or with tags, fused parts or gaps limits assumed): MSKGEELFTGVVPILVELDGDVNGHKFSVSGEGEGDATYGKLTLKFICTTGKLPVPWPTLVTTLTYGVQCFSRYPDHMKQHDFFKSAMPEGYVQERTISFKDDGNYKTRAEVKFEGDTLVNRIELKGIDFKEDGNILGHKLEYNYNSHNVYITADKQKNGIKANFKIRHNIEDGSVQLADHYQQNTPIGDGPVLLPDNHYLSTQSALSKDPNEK

B1: GFP S11 wild type (peptide)
peptide: KRDHMVLLEFVTAAGITGT
modifications: also: fused to sulfite reductase
notes: also called GFP S11 214-230; wild type GFP S11
As for B1, the binding result is “no binding”.

Source of the values: patent US20050221343A1 (LOS ALAMOS NATIONAL SECURITY, published 2005).
